Experimental data reported in patent US20220370608A1 (HUMANITAS MIRASOLE S P A, published 2022).

Target: T1, receptor of advanced glycation end products (RAGE) on NK cells (human, UniProt Q15109 23-404)
T1 construct: whole, on cells; Endogenous receptor on primary NK cells from healthy donors; also called Receptor for Advance Glycation End product
Test: flow cytometry of RAGE on NK cells treated with rhCHI3L1, and phospho-JNK flow cytometry (binding inferred)
Procedure: (a) Dot plots for RAGE expression on NK cells (left) and MFI of RAGE expression on NK cells treated with rhCHI3L1. (b) MFI of lytic granules staining in NKs treated with CHI3L1 (50 ng/ml) or anti-RAGE Blocking antibody (10 ug/ml) for 1 h. (c) effect of RAGE blockade on NK cells cytotoxicity (d) Basal P-JNK levels in NK cells treated with CHI3L1 (e) P-JNK levels in NK cells after 10 min of stimulation by RAGE ligand S100A8/A9 (10 ug/ml) alone or with rhCHI3L1 (100 ng/ml) and (f) P-JNK levels in time during ADCC of NK cells incubated with SKBR3 targets at (5:1) E:T ratio. All plots are representative of at least two
Single-cell suspensions, of blood or from cell culture, were obtained and incubated with Fc receptor-blocking antibody before being stained on ice. Dead cells were excluded by live/dead staining using fixable live/dead stain dyes (Thermofisher scientific). Primary NK cells [from healthy donors, after informed consent] were gated as singlets, CD14neg, FSC−. SSC appropriate for lymphocytes, CD3neg, CD16/CD56 poscells. Intracellular staining was performed using a fixation and permeabilization buffer (BD Bioscience). […] Stained cells were analyzed on FACSCanto II cytometer (BD Biosciences). […] Flow cytometry data were analyzed with FlowJo v10 software (Tree Star).

T1 sequence (Q15109 23-404): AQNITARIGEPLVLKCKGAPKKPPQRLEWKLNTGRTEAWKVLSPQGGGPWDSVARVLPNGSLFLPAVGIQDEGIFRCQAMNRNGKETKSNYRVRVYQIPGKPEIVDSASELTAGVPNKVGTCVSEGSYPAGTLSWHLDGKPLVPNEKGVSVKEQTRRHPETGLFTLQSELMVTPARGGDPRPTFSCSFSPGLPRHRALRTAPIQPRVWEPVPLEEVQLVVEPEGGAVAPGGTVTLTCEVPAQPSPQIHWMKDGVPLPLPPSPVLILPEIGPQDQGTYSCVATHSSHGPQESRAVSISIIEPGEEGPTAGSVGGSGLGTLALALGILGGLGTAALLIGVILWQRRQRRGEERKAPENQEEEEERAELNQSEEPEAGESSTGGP

binding result: binds
B1: recombinant human Chitinase 3-like 1 (rhCHI3L1) (ligand)
chain: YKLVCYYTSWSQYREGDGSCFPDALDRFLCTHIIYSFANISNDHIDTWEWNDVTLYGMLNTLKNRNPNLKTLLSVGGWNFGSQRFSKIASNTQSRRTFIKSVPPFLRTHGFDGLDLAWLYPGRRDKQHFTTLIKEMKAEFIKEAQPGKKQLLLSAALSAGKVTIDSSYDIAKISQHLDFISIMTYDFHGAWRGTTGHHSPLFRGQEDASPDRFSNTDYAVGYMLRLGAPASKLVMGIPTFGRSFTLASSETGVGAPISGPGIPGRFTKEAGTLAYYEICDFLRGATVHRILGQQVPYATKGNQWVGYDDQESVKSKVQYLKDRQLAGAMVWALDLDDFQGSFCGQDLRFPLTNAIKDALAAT
notes: Recombinant protein; also called YKL-40; CHI311
